Data from patent publication US20120276098A1 (GlaxoSmithKline, published 2012).

B1: DAT 0120: GLP-1 (7-37) A8G, helical linker, DOM7h-14 fusion (other)
chain: HGEGTFTSDVSSYLEGQAAKEFIAWLVKGRGKEAAAKEAAAKEAAAKELAAKEAAAKEAAAKEAAAKELAADIQMTQSPSSLSASVGDRVTITCRASQWIGSQLSWYQQKPGKAPKLLIMWRSSLQSGVPSRFSGSGSGTDFTLTISSLQPEDFATYYCAQGAALPRTFGQGTKVEIKR
notes: also called DAT 0120: GLP-1 A8G, helical linker, DOM7h-14 fusion
B2: Rat serum albumin (other, UniProt P02770 25-608, looked up)
chain: EAHKSEIAHRFKDLGEQHFKGLVLIAFSQYLQKCPYEEHIKLVQEVTDFAKTCVADENAENCDKSIHTLFGDKLCAIPKLRDNYGELADCCAKQEPERNECFLQHKDDNPNLPPFQRPEAEAMCTSFQENPTSFLGHYLHEVARRHPYFYAPELLYYAEKYNEVLTQCCTESDKAACLTPKLDAVKEKALVAAVRQRMKCSSMQRFGERAFKAWAVARMSQRFPNAEFAEITKLATDVTKINKECCHGDLLECADDRAELAKYMCENQATISSKLQACCDKPVLQKSQCLAEIEHDNIPADLPSIAADFVEDKEVCKNYAEAKDVFLGTFLYEYSRRHPDYSVSLLLRLAKKYEATLEKCCAEGDPPACYGTVLAEFQPLVEEPKNLVKTNCELYEKLGEYGFQNAVLVRYTQKAPQVSTPTLVEAARNLGRVGTKCCTLPEAQRLPCVEDYLSAILNRLCVLHEKTPVSEKVTKCCSGSLVERRPCFSALTVDETYVPKEFKAETFTFHSDICTLPDKEKQIKKQTALAELVKHKPKATEDQLKTVMGDFAQFVDKCCKAADKDNCFATEGPNLVARSKEALA
notes: also called RSA

What was measured:
Assay in all cases: SPR (Biacore), serum albumin immobilised on CM5 chip, fusion flowed at 16 nM to 2 uM
Human serum albumin = target: T1, Human serum albumin (human, UniProt P02768 25-609)
T1 construct: also called HSA
Experimental: (§1) The analysis was performed using a CM5 Biacore chip (carboxymethylated dextran matrix) that was coated with serum albumin.
(§2) Affinity (KD) was calculated from the BIACORE traces by fitting on-rate and off-rate curves to traces generated by concentrations of dAb in the region of the KD.

Rat serum albumin = target: B2
Experimental: as §1, §2

Mouse serum albumin = target: T2, Mouse serum albumin (mouse, UniProt P07724 25-608)
T2 construct: also called MSA
Experimental: as §1, §2

[1] = target: DAT 0117: Exendin 4, helical linker, DOM7h-14 fusion
Experimental: as §1, §2

T2 sequence (P07724 25-608 limits assumed): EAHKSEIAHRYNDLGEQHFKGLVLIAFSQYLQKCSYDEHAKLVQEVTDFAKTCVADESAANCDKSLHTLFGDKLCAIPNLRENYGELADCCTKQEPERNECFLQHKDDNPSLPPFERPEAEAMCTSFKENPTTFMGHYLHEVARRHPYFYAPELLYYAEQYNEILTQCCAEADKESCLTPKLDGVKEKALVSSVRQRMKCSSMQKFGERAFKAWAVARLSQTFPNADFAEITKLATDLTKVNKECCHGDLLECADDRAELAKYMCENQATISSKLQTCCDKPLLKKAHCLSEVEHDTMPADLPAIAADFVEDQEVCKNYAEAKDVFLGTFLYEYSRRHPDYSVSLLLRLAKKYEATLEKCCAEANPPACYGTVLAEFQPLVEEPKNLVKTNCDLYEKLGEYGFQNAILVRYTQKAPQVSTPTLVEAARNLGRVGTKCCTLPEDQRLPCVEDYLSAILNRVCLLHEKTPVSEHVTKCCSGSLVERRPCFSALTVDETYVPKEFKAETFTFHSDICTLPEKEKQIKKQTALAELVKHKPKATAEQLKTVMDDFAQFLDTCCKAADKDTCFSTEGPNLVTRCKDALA

Binder	Kd (Human serum albumin) [nM]	Kd (Rat serum albumin) [nM]	Kd (Mouse serum albumin) [nM]	Kd [1] [nM]
B1	110	800	110	
B2				700
